{"source": "paper PMC5458804", "about": "(Nature cell biology, 2017)", "molecules": {"B1": {"name": "p60N (N-terminal domain of katanin p60) (domain or fragment)", "chain": "MSLQMIVENVKLAREYALLGNYDSAMVYYQGVLDQMNKYLYSVKDTHLRQKWQQVWQEINVEAKQVKDIMKTLESFKL"}, "B2": {"name": "p60N-L19A (domain or fragment)", "chain": "B1 chain with L19A"}, "B3": {"name": "p60N-L18A (domain or fragment)", "chain": "B1 chain with L18A"}}, "key": {"[1]": {"biological_target": "p60N/p80C heterodimer (mouse) (UniProt Q9WV86)", "test": "crystal structure"}, "[2]": {"biological_target": "p60N/p80C heterodimer (mouse) (UniProt Q9WV86)", "test": "AUC"}, "[3]": {"biological_target": "p80C (C-terminal domain of katanin p80) (mouse, UniProt Q8BG40 481-658)", "sequence (Q8BG40 481-658)": "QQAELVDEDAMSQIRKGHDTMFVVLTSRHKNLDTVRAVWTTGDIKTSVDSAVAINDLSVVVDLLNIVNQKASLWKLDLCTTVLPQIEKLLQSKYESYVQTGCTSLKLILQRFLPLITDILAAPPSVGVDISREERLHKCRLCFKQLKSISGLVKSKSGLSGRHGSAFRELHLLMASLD", "test": "AUC"}, "[4]": {"biological_target": "p80C-S538L (mouse, UniProt Q8BG40 481-658, S538L)", "sequence (Q8BG40 481-658 S538L)": "as the sequence (Q8BG40 481-658) above, with S58L counted along it", "test": "AUC"}, "[5]": {"biological_target": "p80C-Y574A (mouse, UniProt Q8BG40 481-658, Y574A)", "sequence (Q8BG40 481-658 Y574A)": "as the sequence (Q8BG40 481-658) above, with Y94A counted along it", "test": "AUC"}, "[6]": {"biological_target": "p80C-R615A (mouse, UniProt Q8BG40 481-658, R615A)", "sequence (Q8BG40 481-658 R615A)": "as the sequence (Q8BG40 481-658) above, with R135A counted along it", "test": "AUC"}}, "note": "Numbering of substitutions follows the chain as printed. Numbers in names are those of the source.", "data": [{"molecule": "ASPMp (peptide corresponding to the third repeat of ASPM, as crystallised)", "values": [{"measurement": "stoichiometry N", "setting": "[1]", "value": 1}]}, {"molecule": "TAMRA-labeled ASPMp peptide", "values": [{"measurement": "Kd", "setting": "[2]", "value": 9, "unit": "µM"}]}, {"molecule": "B1", "values": [{"measurement": "binding result", "setting": "[3]", "value": "binds"}, {"measurement": "binding result", "setting": "[4]", "value": "binds"}, {"measurement": "binding result", "setting": "[5]", "value": "binds"}, {"measurement": "binding result", "setting": "[6]", "value": "binds"}]}, {"molecule": "B2", "values": [{"measurement": "binding result", "setting": "[3]", "value": "binds"}]}, {"molecule": "B3", "values": [{"measurement": "binding result", "setting": "[3]", "value": "binds"}]}]}
